According to the supplement of paper PMC7877785:
± gives the uncertainty stated by the source.

Experiment: self-splicing fitness, log relative to wild type (ln ratio); higher = more splicing; Tetrahymena group I intron in knt gene, E. coli kanamycin selection, DiMSum; sequences stand for … in CUCUCU…GGAGGGAAAAGUUAUCAGGCAUGCACCUGGUAGCUAGUCUUUAAACCAAUAGAUUGCAUCGGUUUAAAAGGCAAGACCGUCAAAUUGCGGGAAAGGGGUCAACAGCCGUUCAGUACCAAGUCUCAGGGGAAACUUUGAGAUGGCCUUGCAAAGGGUAUGGUAAUAAGCUGACGGACAUGGUCCUAACCACGCAGCCAAGUCCUAAGUCAACAGAUCUUCUGUUGAUAUGGAUGCAGUUCACAGACUAAAUGUCGGUCGGGGAAGAUGUAUUCUUCUCAUAAGAUAUAGUCGGACCUCUCCUUAAUGGGAGCUAGCGGAUGAAGUGAUGCAACACUGGAGCCGCUGGGAACUAAUUUGUAUGCGAAAGUAUAUUGAUUAGUUUUGGAGUACUCGUGGUCG
How it was run: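 Colonies from six replicate transformations of E. coli BL21(DE3) were pooled and amplicon-sequenced on an Illumina HiSeq 2500. The library placed an intron with all eight P1ex-region nucleotides randomised inside the knt kanamycin-resistance gene on pET-22b(+), and cells grew overnight at 37°C or 30°C on LB agar with or without 25 μg/mL kanamycin (plus 100 μg/mL carbenicillin, 50 μM IPTG, 0.2% rhamnose). Fitness is the DiMSum error-weighted combination of wild-type-normalised replicate fold changes, kanamycin versus none.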

Row | Sequence | self-splicing fitness (ln) (30 °C) | self-splicing fitness (ln) (37 °C)
1 | AGUCAGCAAUAUUACGAUGU | 0.202 ± 0.062 | 0.34 ± 0.087
2 | AGUCAGCAAUAUUACGCAGA | -1.64 ± 0.2 | -1.45 ± 0.22
3 | AGUCAGCAAUAUUACGCCCC | 0.28 ± 0.17 | 0.672 ± 0.33
4 | AGUCAGCAAUAUUACGCCCU | -1.1 ± 0.24 | -0.315 ± 0.3
5 | AGUCAGCAAUAUUACGCUCA | -0.675 ± 0.095 | -0.791 ± 0.12
6 | AGUCAGCAAUAUUACGCUGU | -4.12 ± 0.34 | -2.73 ± 0.22
7 | AGUCAGCAAUAUUACGGACA | 0.233 ± 0.078 | 0.157 ± 0.087
8 | AGUCAGCAAUAUUACGGAGA |  | -1.53 ± 0.38
9 | AGUCAGCAAUAUUACGGAUA | -0.982 ± 0.1 | -0.318 ± 0.098
10 | AGUCAGCAAUAUUACGGCCC | -0.436 ± 0.12 | -0.0813 ± 0.18
11 | AGUCAGCAAUAUUACGGGAA | -2.12 ± 0.17 | -2.4 ± 0.22
12 | AGUCAGCAAUAUUACGGGAU | -1.04 ± 0.079 | -1.51 ± 0.15
13 | AGUCAGCAAUAUUACGGUAU | -0.592 ± 0.05 | -0.99 ± 0.063
14 | AGUCAGCAAUAUUACGUAUC | -1.19 ± 0.076 | -0.186 ± 0.11
15 | AGUCAGCAAUAUUACGUCAG | -2.65 ± 0.16 | -1.86 ± 0.15
16 | AGUCAGCAAUAUUACGUCUC | -4.29 ± 0.31 | -2.01 ± 0.15
17 | AGUCAGCAAUAUUACGUGAG | -0.691 ± 0.054 | -0.0397 ± 0.086
18 | AGUCAGCAAUAUUACGUGCU | -2.18 ± 0.12 | -1.43 ± 0.12
19 | AGUCAGCAAUAUUACGUGGU | -1.26 ± 0.11 | -2.37 ± 0.19
20 | AGUCAGCAAUAUUACGUUGA |  | -3.49 ± 0.31
21 | AGUGAGCAAUAUUACGAAGG | -3.45 ± 0.37 | -1.41 ± 0.38
22 | AGUGAGCAAUAUUACGAAUU | -3.18 ± 0.37 | -2.56 ± 0.33
23 | AGUGAGCAAUAUUACGAGUC | -4.15 ± 0.47 | -1.93 ± 0.18
24 | AGUGAGCAAUAUUACGCCAU | -2.58 ± 0.43 | -0.383 ± 0.35
25 | AGUGAGCAAUAUUACGCCCA | -3.28 ± 0.46 | -2.42 ± 0.37

Row | Sequence | self-splicing fitness (ln) (30 °C) | self-splicing fitness (ln) (37 °C)
26 | AGUGAGCAAUAUUACGCCCG | -2.27 ± 0.4 | 
27 | AGUGAGCAAUAUUACGCGAA | -2.36 ± 0.32 | -1.56 ± 0.29
28 | AGUGAGCAAUAUUACGCGCU |  | -1.83 ± 0.39
29 | AGUGAGCAAUAUUACGCUUC | -2.41 ± 0.25 | -2.7 ± 0.34
30 | AGUGAGCAAUAUUACGGAAG | -2.58 ± 0.25 | 
31 | AGUGAGCAAUAUUACGGCAC | -1.29 ± 0.17 | -1.01 ± 0.21
32 | AGUGAGCAAUAUUACGGCCU | -0.495 ± 0.13 | 0.416 ± 0.15
33 | AGUGAGCAAUAUUACGGCUA | -0.705 ± 0.24 | -1.38 ± 0.23
34 | AGUGAGCAAUAUUACGGUGC | -3.77 ± 0.27 | -1.91 ± 0.22
35 | AGUGAGCAAUAUUACGUACA | -1.72 ± 0.28 | -0.682 ± 0.36
36 | AGUGAGCAAUAUUACGUAUA | -2.18 ± 0.25 | -2.72 ± 0.27
37 | AGUGAGCAAUAUUACGUAUU | -3.27 ± 0.25 | -2.23 ± 0.31
38 | AGUGAGCAAUAUUACGUGAA | -3.3 ± 0.36 | -2.91 ± 0.19
39 | AGUGAGCAAUAUUACGUGCA | -2.06 ± 0.14 | -0.509 ± 0.13
40 | AGUGAGCAAUAUUACGUGGU | -3.64 ± 0.22 | -2.18 ± 0.23
41 | AGUGAGCAAUAUUACGUGUU | -4.67 ± 0.46 | -3.04 ± 0.25
42 | AGUUAGCAAUAUUACGACCG | -0.776 ± 0.093 | -0.166 ± 0.13
43 | AGUUAGCAAUAUUACGCAAA |  | -1.57 ± 0.29
44 | AGUUAGCAAUAUUACGCAGA | -2.06 ± 0.26 | -2.04 ± 0.26
45 | AGUUAGCAAUAUUACGCAGG | -2.31 ± 0.3 | -0.586 ± 0.29
46 | AGUUAGCAAUAUUACGCAGU | -2.38 ± 0.23 | -2.62 ± 0.31
47 | AGUUAGCAAUAUUACGCCUA | -1.11 ± 0.16 | -0.149 ± 0.13
48 | AGUUAGCAAUAUUACGCUCC | -1.45 ± 0.45 | -1.02 ± 0.33
49 | AGUUAGCAAUAUUACGCUUG |  | -1.83 ± 0.23
50 | AGUUAGCAAUAUUACGGACA | -0.912 ± 0.12 | 0.372 ± 0.13

Row | Sequence | self-splicing fitness (ln) (30 °C) | self-splicing fitness (ln) (37 °C)
51 | AGUUAGCAAUAUUACGGGGA | -1.84 ± 0.17 | -3.12 ± 0.19
52 | AGUUAGCAAUAUUACGGGUU | -1.38 ± 0.11 | -1.53 ± 0.15
53 | AGUUAGCAAUAUUACGGUCG | -0.622 ± 0.094 | -0.715 ± 0.14
54 | AGUUAGCAAUAUUACGUAAC | -4.54 ± 0.46 | -2.21 ± 0.24
55 | AGUUAGCAAUAUUACGUCAG | -3.99 ± 0.29 | -3.25 ± 0.19
56 | AGUUAGCAAUAUUACGUCGU | -2.35 ± 0.14 | -1.05 ± 0.14
57 | AGUUAGCAAUAUUACGUCUG | -1.43 ± 0.074 | -1.72 ± 0.11
58 | AUAAAGCAAUAUUACGAACA | 0.281 ± 0.085 | 0.425 ± 0.11
59 | AUAAAGCAAUAUUACGAAUC | -4.22 ± 0.42 | -1.31 ± 0.22
60 | AUAAAGCAAUAUUACGAAUG | -1.48 ± 0.1 | -0.422 ± 0.12
61 | AUAAAGCAAUAUUACGCAUU | -1.82 ± 0.086 | -0.523 ± 0.11
62 | AUAAAGCAAUAUUACGCCUA | -0.422 ± 0.091 | -0.286 ± 0.1
63 | AUAAAGCAAUAUUACGCGUC | -4.6 ± 0.46 | -2.73 ± 0.29
64 | AUAAAGCAAUAUUACGCUGU | -0.921 ± 0.09 | -0.246 ± 0.1
65 | AUAAAGCAAUAUUACGGAUG | -1.69 ± 0.072 | -0.844 ± 0.11
66 | AUAAAGCAAUAUUACGGGGU | -2.63 ± 0.16 | -1.99 ± 0.14
67 | AUAAAGCAAUAUUACGGUAA | -1.21 ± 0.077 | -0.709 ± 0.09
68 | AUAAAGCAAUAUUACGGUAC | -1.89 ± 0.11 | -2.6 ± 0.17
69 | AUAAAGCAAUAUUACGGUCG | 0.114 ± 0.059 | -0.114 ± 0.083
70 | AUAAAGCAAUAUUACGUCCG | -0.335 ± 0.11 | 0.106 ± 0.13
71 | AUAAAGCAAUAUUACGUCGA | -0.992 ± 0.068 | 0.858 ± 0.086
72 | AUAAAGCAAUAUUACGUUGG | -2.08 ± 0.11 | -2.15 ± 0.15
73 | AUACAGCAAUAUUACGAAUG | -2.16 ± 0.14 | -2.7 ± 0.19
74 | AUACAGCAAUAUUACGACUG | -1.52 ± 0.077 | -0.848 ± 0.097
75 | AUACAGCAAUAUUACGAUGC | -1.75 ± 0.11 | -1.17 ± 0.16

Row | Sequence | self-splicing fitness (ln) (30 °C) | self-splicing fitness (ln) (37 °C)
76 | AUACAGCAAUAUUACGCAAA | -2.45 ± 0.21 | -1.07 ± 0.18
77 | AUACAGCAAUAUUACGCACC | -1.21 ± 0.086 | -1.05 ± 0.1
78 | AUACAGCAAUAUUACGCCAA | -2.6 ± 0.19 | -1.22 ± 0.18
79 | AUACAGCAAUAUUACGCGUG | -0.923 ± 0.063 | -0.481 ± 0.082
80 | AUACAGCAAUAUUACGCUCA | -0.776 ± 0.069 | 0.318 ± 0.086
81 | AUACAGCAAUAUUACGGACA | -1.55 ± 0.13 | -0.413 ± 0.13
82 | AUACAGCAAUAUUACGGCGU | -0.145 ± 0.065 | 0.665 ± 0.076
83 | AUACAGCAAUAUUACGGUCU | 0.331 ± 0.06 | -0.16 ± 0.064
84 | AUACAGCAAUAUUACGGUUA | -0.52 ± 0.069 | -0.372 ± 0.071
85 | AUACAGCAAUAUUACGUCAG | -3.05 ± 0.13 | -1.23 ± 0.13
86 | AUACAGCAAUAUUACGUUAC | -3.94 ± 0.25 | -2.79 ± 0.27
87 | AUACAGCAAUAUUACGUUGU | -2.77 ± 0.098 | -2.81 ± 0.13
88 | AUAGAGCAAUAUUACGAAAU | -0.572 ± 0.1 | 0.0653 ± 0.13
89 | AUAGAGCAAUAUUACGAACA | -1.9 ± 0.16 | -1.09 ± 0.25
90 | AUAGAGCAAUAUUACGAACC | -2.16 ± 0.14 | -1.02 ± 0.14
91 | AUAGAGCAAUAUUACGAGCA | -2.57 ± 0.19 | -0.949 ± 0.2
92 | AUAGAGCAAUAUUACGAGGU | -3.58 ± 0.44 | -2.94 ± 0.27
93 | AUAGAGCAAUAUUACGAGUA | -3.77 ± 0.33 | -2.52 ± 0.28
94 | AUAGAGCAAUAUUACGAUAG | -3.43 ± 0.34 | -1.62 ± 0.23
95 | AUAGAGCAAUAUUACGAUCC | -3.08 ± 0.33 | -2.18 ± 0.36
96 | AUAGAGCAAUAUUACGAUUA | -2.45 ± 0.21 | -0.158 ± 0.17
97 | AUAGAGCAAUAUUACGCACG | -1.57 ± 0.18 | -0.997 ± 0.23
